Among the data in publication PMC11402128, “The stability of FKBP9 maintained by BiP is crucial for glioma progression” (Genes & Diseases, 2023) are Kd values, retold here.

In the assay the target is T1, human recombinant protein BiP (TP305859, Origene) (human, UniProt P11021 19-654).
T1 construct: also called purified BiP; source: bought: Origene (TP305859)
In words: SPR; BScreen LB 991 label-free microarray system; proteins printed on the chip and photo-cross-linked; analyte proteins at 200, 400, 800, 1600 and 3200 nM in 10 mM HEPES pH 7.0, 3 mM EDTA, 150 mM NaCl, 0.005% P20; 5 uL/min, 10 min association, 6 min dissociation; constants by slope fitting. To be noted: both partners purified. For orientation: SPR reads the build-up and loss of mass on a sensor chip optically.

T1 sequence (P11021 19-654): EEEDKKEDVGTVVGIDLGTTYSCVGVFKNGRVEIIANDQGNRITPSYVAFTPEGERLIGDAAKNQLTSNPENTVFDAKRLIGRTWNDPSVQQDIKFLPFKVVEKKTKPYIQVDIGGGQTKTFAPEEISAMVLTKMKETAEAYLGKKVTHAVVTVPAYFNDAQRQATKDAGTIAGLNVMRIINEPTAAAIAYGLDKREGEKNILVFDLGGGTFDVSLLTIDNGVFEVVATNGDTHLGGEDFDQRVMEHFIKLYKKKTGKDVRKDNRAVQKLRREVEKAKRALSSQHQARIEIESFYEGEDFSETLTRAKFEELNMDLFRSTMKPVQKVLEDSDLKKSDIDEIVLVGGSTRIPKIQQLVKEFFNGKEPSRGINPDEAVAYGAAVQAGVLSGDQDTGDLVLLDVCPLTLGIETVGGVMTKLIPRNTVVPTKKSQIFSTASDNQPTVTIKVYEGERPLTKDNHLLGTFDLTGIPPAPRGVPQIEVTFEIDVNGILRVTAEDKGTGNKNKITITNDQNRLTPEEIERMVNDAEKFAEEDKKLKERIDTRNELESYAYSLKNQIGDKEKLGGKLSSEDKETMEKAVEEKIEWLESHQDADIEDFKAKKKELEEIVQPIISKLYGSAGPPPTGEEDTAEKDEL

B1: human recombinant protein FKBP9 (TP322307, Origene) (natural protein, UniProt O95302 25-570, looked up)
chain: APVAGLGSDAELQIERRFVPDECPRTVRSGDFVRYHYVGTFPDGQKFDSSYDRDSTFNVFVGKGQLITGMDQALVGMCVNERRFVKIPPKLAYGNEGVSGVIPPNSVLHFDVLLMDIWNSEDQVQIHTYFKPPSCPRTIQVSDFVRYHYNGTFLDGTLFDSSHNRMKTYDTYVGIGWLIPGMDKGLLGMCVGEKRIITIPPFLAYGEDGDGKDIPGQASLVFDVALLDLHNPKDSISIENKVVPENCERISQSGDFLRYHYNGTLLDGTLFDSSYSRNRTFDTYIGQGYVIPGMDEGLLGVCIGEKRRIVVPPHLGYGEEGRGNIPGSAVLVFDIHVIDFHNPSDSISITSHYKPPDCSVLSKKGDYLKYHYNASLLDGTLLDSTWNLGKTYNIVLGSGQVVLGMDMGLREMCVGEKRTVIIPPHLGYGEAGVDGEVPGSAVLVFDIELLELVAGLPEGYMFIWNGEVSPNLFEEIDKDGNGEVLLEEFSEYIHAQVASGKGKLAPGFDAELIVKNMFTNQDRNGDGKVTAEEFKLKDQEAKHDEL
notes: also called purified FKBP9; source: bought: Origene (TP322307)
Take B1: the Kd (in general, the free concentration of one partner at which half of the binding sites on the other are occupied at equilibrium, for simple one-to-one binding) is 0.271 µM.
